# Tests used:
# K48-linked diubiquitin = K48-linked diubiquitin (UniProt P0CG48); assay: ITC; settings: domain or fragment
# K63-linked diubiquitin = K63-linked diubiquitin (UniProt P0CG48); assay: ITC; settings: domain or fragment
# Chain of human UBAP1 SOUBA domain (389-502), wild-type (Q9NZ09 389-502): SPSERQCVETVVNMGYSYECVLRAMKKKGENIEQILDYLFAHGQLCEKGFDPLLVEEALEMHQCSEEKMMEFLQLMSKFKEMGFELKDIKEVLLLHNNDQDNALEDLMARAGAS
substance,measurement,setting,value
"human UBAP1 SOUBA domain (389-502), wild-type (from UniProt Q9NZ09 389-502)",Kd,K48-linked diubiquitin,65 µM
same,Kd,K63-linked diubiquitin,41 µM
